Positions count from the first letter of the chain named. In names and notes the source's numbering stands. Each block holds one molecule with its values, some of them ahead of it.
Assays:
SK-MES-1 cells = assay: Apoptosis bioassay with crystal violet staining; assay type: cell-based, human; conditions: 24 hours, FIGS. 17 and 18
Description: SK-MES-1 human lungcarcinomacells (ATCCHTB 58) were culturedin DMEM:Ham'sF-12 (50:50) media supplemented with 10% FBS, 2 mM L-glutamine, 100 U/ml penicillin, and 100 microgram streptomycin. SK-MES-1 cells were seeded in 96-well Falcon tissue culture treated microplates in a volume of 0.1 ml at a density of 4.0×10^4 cells/well and allowed to attach overnight at 37° C. Apoptosis was induced by adding the various Apo-2L substitutional variants or Apo-2L (consisting of amino acids 91-281 of FIG. 1A; referred to as Apo-2L.2) for 24 hours. Following treatment with the test proteins, the media was removed and the wells were stained for 15 minutes with a 0.5% solution of crystal violet in methanol. The cell number was determined by measuring optical density of the dry plates at 540 nm using a SLT 340 ATC plate reader (Salzburg, Austria).

DR4 = molecular target: T1, DR4 (Homo sapiens, UniProt O00220); assay: BIAcore kinetic binding analysis; conditions: IgG-receptor fusion DR4 immobilized; significant = >2-fold; FIG. 19
T1 construct: Each of the Apo-2L receptor proteins were prepared as immuno adhesin sessentially as described in Ashkenazi et al; made in house
T1 sequence (O00220 24-239 limits assumed): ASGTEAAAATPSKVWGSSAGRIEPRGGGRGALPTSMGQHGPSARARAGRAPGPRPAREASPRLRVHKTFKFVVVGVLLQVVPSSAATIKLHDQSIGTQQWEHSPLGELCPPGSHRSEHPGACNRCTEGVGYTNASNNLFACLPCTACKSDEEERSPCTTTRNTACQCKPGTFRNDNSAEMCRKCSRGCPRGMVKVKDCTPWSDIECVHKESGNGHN
Description: (§1) For comparison, Apo-2L, consisting of amino acids 91-281 was also tested in the BIAcore for binding to the IgG-receptor fusion molecules. Each of the Apo-2L receptor proteins were prepared as immuno adhesin sessentially as described in Ashkenazi et al., Proc. Natl. Acad. Sci., 88:10535-10539 (1991). The IgG-receptor fusion molecules were immobilized to the CM5 BIAcore chip, research grade (Pharmacia), using NHS-EDC amine coupling chemistry. The Apo-2L alanine-substituted proteins were serially diluted 2-fold from 500 nM to 15.625 nM in the BIAcore running buffer, PBS/0.05% Tween 20, and passed across the sensor chip surface with immobilized receptor. Specific kinetic binding parameters were used to determine the KD value using the BIAcore evaluation software (according to manufacturer's instructions).

DR5 = molecular target: T2, DR5 (Homo sapiens, UniProt O14763); assay: BIAcore kinetic binding analysis; conditions: IgG-receptor fusion DR5 immobilized; significant = >2-fold; FIG. 19
T2 construct: Each of the Apo-2L receptor proteins were prepared as immuno adhesin sessentially as described in Ashkenazi et al; made in house
T2 sequence (O14763 56-184 limits assumed): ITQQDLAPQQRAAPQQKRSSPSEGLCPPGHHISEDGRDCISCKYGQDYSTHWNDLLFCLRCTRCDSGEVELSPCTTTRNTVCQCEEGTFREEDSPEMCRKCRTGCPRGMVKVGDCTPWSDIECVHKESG
Description: as §1

DcR2 = molecular target: T3, DcR2 (Homo sapiens, UniProt Q9UBN6); assay: BIAcore kinetic binding analysis; conditions: IgG-receptor fusion DcR2 immobilized; significant = >2-fold; FIG. 19
T3 construct: Each of the Apo-2L receptor proteins were prepared as immuno adhesin sessentially as described in Ashkenazi et al; made in house
T3 sequence (Q9UBN6 56-211 limits assumed): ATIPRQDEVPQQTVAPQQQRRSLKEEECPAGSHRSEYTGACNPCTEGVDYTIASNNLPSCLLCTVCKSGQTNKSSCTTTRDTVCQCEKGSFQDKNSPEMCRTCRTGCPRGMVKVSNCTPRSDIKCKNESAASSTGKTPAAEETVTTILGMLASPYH
Description: as §1

OPG = molecular target: T4, OPG (Homo sapiens, UniProt O00300); assay: BIAcore kinetic binding analysis; conditions: OPGR-IgG immobilized; FIG. 19
T4 construct: made in house
T4 sequence (O00300 22-401): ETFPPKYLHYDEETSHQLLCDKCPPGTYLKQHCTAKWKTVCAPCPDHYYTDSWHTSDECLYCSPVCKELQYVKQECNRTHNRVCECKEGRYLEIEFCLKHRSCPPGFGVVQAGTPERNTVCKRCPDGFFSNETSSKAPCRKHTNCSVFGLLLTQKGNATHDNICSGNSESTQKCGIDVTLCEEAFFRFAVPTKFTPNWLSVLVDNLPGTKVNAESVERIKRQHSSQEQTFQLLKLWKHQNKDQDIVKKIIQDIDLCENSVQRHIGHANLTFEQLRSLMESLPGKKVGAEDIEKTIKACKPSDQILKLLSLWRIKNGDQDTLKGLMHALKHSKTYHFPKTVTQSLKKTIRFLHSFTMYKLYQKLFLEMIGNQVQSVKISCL
Description: as §1

change in binding (KD) compared to Apo-2L.2 (DR4): no significant change | change in binding (KD) compared to Apo-2L.2 (DR5): no significant change | change in binding (KD) compared to Apo-2L.2 (DcR2): no significant change | binding to OPGR-IgG compared to Apo-2L.2 (OPG): tighter binding
B1: D218A: Apo-2 ligand amino acids 91-281 with aspartic acid at position 218 substituted by alanine (protein)
chain: MAMMEVQGGPSLGQTCVLIVIFTVLLQSLCVAVTYVYFTNELKQMQDKYSKSGIACFLKEDDSYWDPNDEESMNSPCWQVKWQLRQLVRKMILRTSEETISTVQEKQQNISPLVRERGPQRVAAHITGTRGRSNTLSSPNSKNEKALGRKINSWESSRSGHSFLSNLHLRNGELVIHEKGFYYIYSQTYFRFQEEIKENTKNDKQMVQYIYKYTSYPAPILLMKSARNSCWSKDAEYGLYSIYQGGIFELKENDRIFVSVTNEHLIDMDHEASFFGAFLVG
increased apoptosis-inducing activity when compared to Apo-2L.2 (SK-MES-1 cells): approximately 3 fold

change in binding (KD) compared to Apo-2L.2 (DR4): no significant change | change in binding (KD) compared to Apo-2L.2 (DR5): no significant change | change in binding (KD) compared to Apo-2L.2 (DcR2): no significant change | binding to OPGR-IgG compared to Apo-2L.2 (OPG): tighter binding
B2: D269A: Apo-2 ligand amino acids 91-281 with aspartic acid at position 269 substituted by alanine (protein)
chain: B1 chain with A218D, D269A
increased apoptosis-inducing activity when compared to Apo-2L.2 (SK-MES-1 cells): ~7 fold

Reference: patent US6740739B1, “Substitutional variants of APO-2 ligand” (Genentech, Inc., priority 1998, dated 2004)
